This note sets out measurements from patent US9988424 (DUKE UNIVERSITY, dated 2018).

One assay deals with AE.con gp140CF. The assay is described as follows: ELISA, OD405 at 10 ug/ml. For orientation: ELISA stands for enzyme-linked immunosorbent assay.
The target in the next assay is B.63521_V1/V2 tags. In words: ELISA, OD405 at 10 ug/ml.
The target in assay [1] is B.con gp140CF. The assay is described as follows: ELISA, OD405 at 10 ug/ml.
A further assay deals with D.9009SA V1/V2 tags. The assay is described as follows: ELISA, OD405 at 10 ug/ml.
Another assay addresses C.CAP206 gp140CF.12 (HIV-1). The assay is described as follows: ELISA, OD405 at 10 ug/ml.
Assay [2] has as its target C.1086 V1V2 Tags (HIV-1). In words: ELISA, OD405 at 10 ug/ml.
Assay [3] concerns the target T1, gp70 C.1086 V1/V2 (HIV-1 V1V2 on murine leukemia virus gp70).
T1 construct: also called C.gp70 1086C V1V2; C.1086gp70V1V2
T1 chain: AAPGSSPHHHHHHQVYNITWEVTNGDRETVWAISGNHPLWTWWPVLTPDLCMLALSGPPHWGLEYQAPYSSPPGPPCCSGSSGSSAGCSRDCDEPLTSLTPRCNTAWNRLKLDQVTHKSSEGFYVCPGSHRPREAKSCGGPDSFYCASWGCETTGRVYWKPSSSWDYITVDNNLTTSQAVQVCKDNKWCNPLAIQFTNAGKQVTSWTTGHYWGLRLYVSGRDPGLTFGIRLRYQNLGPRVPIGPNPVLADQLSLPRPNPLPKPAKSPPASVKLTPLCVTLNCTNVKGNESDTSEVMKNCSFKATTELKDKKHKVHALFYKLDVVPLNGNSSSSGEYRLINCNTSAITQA
The assay is described as follows: ELISA, OD405 at 10 ug/ml.

Assay [4] concerns the target C.1086 gp120 (HIV-1). The assay is described as follows: ELISA, OD405 at 10 ug/ml.
The target of the next assay is T2, A.9004SS V1/V2 tags.
T2 V1V2 tags construct: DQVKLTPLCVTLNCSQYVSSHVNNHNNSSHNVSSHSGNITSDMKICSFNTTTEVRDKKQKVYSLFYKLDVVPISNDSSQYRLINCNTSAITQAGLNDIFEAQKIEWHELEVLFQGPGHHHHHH
In words: ELISA, OD405 at 10 ug/ml.

In another assay the target is T3, B.62357 gp140C.
T3 construct: also called B.62357 140C
The assay is described as follows: ELISA, OD405 at 10 ug/ml.

Assay [5] has as its target B.con gp140CF. The assay is described as follows: ELISA, OD405 at 10 ug/ml. This is another data set of the same source.
Another assay has as its target J08 A.92RW020V1V2 (HIV-1). The assay is described as follows: ELISA, OD405 at 10 ug/ml.
The target of the next assay is T4, gp70 B.CaseA2 V1/V2 (HIV-1 V1V2 on murine leukemia virus gp70).
T4 construct: also called B.gp70CaseA2 V1/V2; gp70 B.CaseAV1V2
T4 chain: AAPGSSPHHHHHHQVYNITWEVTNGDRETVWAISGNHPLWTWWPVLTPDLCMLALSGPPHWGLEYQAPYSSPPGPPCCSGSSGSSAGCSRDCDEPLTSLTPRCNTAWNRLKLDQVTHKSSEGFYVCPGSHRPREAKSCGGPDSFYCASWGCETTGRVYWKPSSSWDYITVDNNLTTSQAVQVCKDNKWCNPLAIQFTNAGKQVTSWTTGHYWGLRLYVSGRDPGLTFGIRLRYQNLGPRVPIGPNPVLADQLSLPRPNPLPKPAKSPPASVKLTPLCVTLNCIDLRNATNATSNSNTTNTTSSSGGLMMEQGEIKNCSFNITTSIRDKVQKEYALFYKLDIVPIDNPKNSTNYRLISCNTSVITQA
The assay is described as follows: ELISA, OD405 at 10 ug/ml.

The next assay deals with T5, J08 B.HXB2/BALV1V2 (HIV-1).
T5 construct: also called J08 B.HXB/BAL V1V2
T5 chain: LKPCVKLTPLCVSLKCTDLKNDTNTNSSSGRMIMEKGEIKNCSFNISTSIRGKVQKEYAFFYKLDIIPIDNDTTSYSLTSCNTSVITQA
In words: ELISA, OD405 at 10 ug/ml.

Assay [6] concerns the target C.1086 V1V2 Tags (HIV-1). In words: ELISA, OD405 at 10 ug/ml. This is another data set of the same source.
The target of assay [7] is T1, gp70 C.1086 V1/V2. In words: ELISA, OD405 at 10 ug/ml.
For the next assay, the target named is T6, B.HXB/BAL gp140CFI (HIV-1, UniProt P04578 33-680).
T6 construct: also called B.HxB/Ba gp140 CFI
In words: ELISA, OD405 at 10 ug/ml.

For the next assay, the target named is B.9021 gp140C (HIV-1). The assay is described as follows: ELISA, OD405 at 10 ug/ml.
The next assay concerns the target T7, AE.A244 gD+ gp120 (HIV-1).
T7 construct: domain: gp120; also called AE.A244 gp120gD+
In words: ELISA.

A further assay deals with T8, AE.92TH023 gp120 gD+ (HIV-1).
T8 construct: domain: gp120; also called AE.92TH023 gp12 gD+
In words: ELISA.

The target in another assay is T9, AE.97CNG2XF gp140CF (HIV-1).
T9 construct: also called E.97CNGX2F gp140CF
The assay is described as follows: ELISA.

Assay [8] concerns the target C.1086 gp120 (HIV-1). In words: ELISA.

Read-outs that look alike come from different tables or passages of the source.

B1: 697D reverted unmutated ancestor antibody (antibody, V domains shown)
VH: QVQLVQSGAEVKKPGSSVKVSCKASGGTFSSYTISWVRQAPGQGLEWMGRIIPILGIANYAQKFQGRVTITADKSTSTAYMELSSLRSEDTAVYYCATSGVGLHFGYFDYWGQGTLVTVSS
VL: QSVLTQPPSVSGAPGQRVTISCTGSSSNIGAGYDVHWYQQLPGTAPKLLIYGNSNRPSGVPDRFSGSKSGTSASLAITGLQAEDEADYYCQSYDSSLSGYVFGTGTKVTVL
notes: also called 697D RUA
Take B1: the binding result in the assay with AE.con gp140CF, with B.63521_V1/V2 tags, in the assay with B.con gp140CF [1], in the assay with D.9009SA V1/V2 tags, with C.CAP206 gp140CF.12 and with C.1086 V1V2 Tags [2] was “no binding (tested: 10 ug/ml)” in each case. In addition, the binding result with gp70 C.1086 V1/V2 [3] and with C.1086 gp120 [4] was “no binding (tested: 10 ug/ml)” in each case.

B2: PG16 (antibody, V domains shown)
VH: QEQLVESGGGVVQPGGSLRLSCLASGFTFHKYGMHWVRQAPGKGLEWVALISDDGMRKYHSDSMWGRVTISRDNSKNTLYLQFSSLKVEDTAMFFCAREAGGPIWHDDVKYYDFNDGYYNYHYMDVWGKGTTVTVSS
VL: QSALTQPASVSGSPGQTITISCNGTSSDVGGFDSVSWYQQSPGKAPKVMVFDVSHRPSGISNRFSGSKSGNTASLTISGLHIEDEGDYFCSSLTDRSHRIFGGGTKVTVL
notes: also called mAb PG16; bnAb PG16
In the case of B2, the binding result with A.9004SS V1/V2 tags, in the assay with B.62357 gp140C, in the assay with B.con gp140CF [5], with J08 A.92RW020V1V2, with gp70 B.CaseA2 V1/V2 and in the assay with J08 B.HXB2/BALV1V2 was “no binding (tested: 10 ug/ml)” throughout. The binding result with C.1086 V1V2 Tags [6], with gp70 C.1086 V1/V2 [7], in the assay with B.HXB/BAL gp140CFI and with B.9021 gp140C was “no binding (tested: 10 ug/ml)” each time.

B3: CH59 (antibody, V domains shown)
VH: EVQLVESGGGLVQPGRSLRLSCAASGFTFDDGAMHWVRQAPGKGLEWVSGISWNSNIIAYADSVKGRFTISRDNAKNSLYLEMNSLRVEDTALYYCAKDSPRGELPLNYWGQGTLVTVSS
VL: SYELTQPPSVSVSPGQTARITCSGDALPKNYAYWYQQKSGQAPVLVIYEDSKRPSGIPERFSGSSSGTMATLTISGAQVEDEADYYCYSTDSSGNHRVFGGGTKLTVL
notes: also called mAb CH59
A word on the EC50: it is the concentration that produces a half-maximal response. High values mean weaker potency, low ones greater potency. On to B3, for which the EC50 with AE.A244 gD+ gp120 was 0.01 µg/mL; with AE.92TH023 gp120 gD+, 0.023 µg/mL; with AE.97CNG2XF gp140CF, 0.066 µg/mL; with C.1086 gp120 [8] it was 0.02 µg/mL.
